Experimental findings from PMC9402439, “Reconstitution of a telomeric replicon organized by CST” are described below.

The target of the data set is CTC1 (CST subunit);STN1 (CST subunit);TEN1 (CST subunit);Polα-primase, endogenous, co-purified with CST (Homo sapiens;Homo sapiens;Homo …, UniProt Q2NKJ3;Q9H668;Q86WV5;P09884;Q14181;P49642;P49643 …, |||). Nature of the data set: EMSA; Kd,app shown only in figure; CST EMSA: 20 mM HEPES-NaOH pH 8.0, 150 mM NaCl, 2 mM MgCl2, 0.2 mM EGTA, 0.1% NP-40, 10% glycerol, 1 mM DTT, 2 h on ice, 0.7% agarose 1x TBE gel at 4 °C; POT1-TPP1N EMSA: C-strand synthesis buffer, 30 min at 30 °C. To be noted: protein: recombinant;recombinant;recombinant;native; tags: N-terminal 3xFLAG;N-terminal Myc;N-terminal HA;; copies: 1;1;1;1;1;1;1; label: 5'-32P; folds into G-quadruplex in KCl and NaCl, not LiCl. A general note: A gel shift assay detects complexes by their altered migration in electrophoresis.

B1: 9xTEL (ssDNA)
DNA: TTAGGGTTAGGGTTAGGGTTAGGGTTAGGGTTAGGGTTAGGGTTAGGGTTAGGG
As for B1, the binding result was “binds”.

B2: 15xTEL (ssDNA)
DNA: TTAGGGTTAGGGTTAGGGTTAGGGTTAGGGTTAGGGTTAGGGTTAGGGTTAGGGTTAGGGTTAGGGTTAGGGTTAGGGTTAGGGTTAGGG
Turning to B2, the binding result is “binds”.
